Literature values in article PMC3416746.

What was measured:
[1] = target: mDia1 N-terminus (Mus musculus) (UniProt O08808)
[2] = target: mDia1 DID DID (Mus musculus) (UniProt O08808)

| Kd [1] [nM] | Kd [2] [nM] | Substance |
| --- | --- | --- |
| 6 |  | RhoA (from UniProt P61586) |
|  | 150 | mDia1 DAD DAD (from UniProt O08808) |
